Earlier results, collected in patent US12544428B2, “Controlled-release CNP agonists with reduced side-effects” (ASCENDIS PHARMA GROWTH DISORDERS A/S, priority 2016, dated 2026).
Bridge positions count the residues as written; N and C are the ends. Ends that are not written are not given here.

Settings: Phase 1 study, healthy volunteers; cited from earlier work

BMN-111: a CNP variant with increased NEP resistance in development for the treatment of achondroplasia (PGQEHPNARKYKGANKKGLSKGCFGLKLDRIGSMSGLGC; disulfide 23-39; chains of the INN, looked up)
hypotension: mild hypotension
